US20050085442A1

Columns and labels:
[1] = biological target: human airway smooth muscle cell mannose receptor (huASMC-MR) (human) (UniProt Q9UBG0); assay: flow cytometry (cell sorting) of bovine airway smooth muscle cells transfected with full-length huASMC-MR cDNA plasmid; vector control 57/1718 cells
[2] = biological target: bovine airway smooth muscle cell mannose receptor (bovine); assay: cell-based or functional assay

Substance	percent of cells with increased fluorescence intensity [1] [%]	b hexosaminidase-induced mitogenesis in bovine ASMC, inhibition by antisense huASMC-MR morpholino oligonucleotides (5 µM) [2] [%]
FITC-ManBSA (FITC-labelled mannosylated bovine serum albumin) (from UniProt P02769 25-607)	61	
b hexosaminidase A (human placental β-hexosaminidase, Sigma) (from UniProt P06865 89-529; P07686 122-556) (enzyme)		37
